Tests used:
Assay in all cases: SPR, Biacore T200, 25 C; FVII(a) variant captured on anti-Gla Ab 4F6, mAb0842(OA) injected
FVII(a) variant V252A = biological target: T1, FVII(a) variant V252A (human, UniProt P08709 61-466)
T1 construct: hFVII alanine variant in cell culture supernatant
T1 sequence: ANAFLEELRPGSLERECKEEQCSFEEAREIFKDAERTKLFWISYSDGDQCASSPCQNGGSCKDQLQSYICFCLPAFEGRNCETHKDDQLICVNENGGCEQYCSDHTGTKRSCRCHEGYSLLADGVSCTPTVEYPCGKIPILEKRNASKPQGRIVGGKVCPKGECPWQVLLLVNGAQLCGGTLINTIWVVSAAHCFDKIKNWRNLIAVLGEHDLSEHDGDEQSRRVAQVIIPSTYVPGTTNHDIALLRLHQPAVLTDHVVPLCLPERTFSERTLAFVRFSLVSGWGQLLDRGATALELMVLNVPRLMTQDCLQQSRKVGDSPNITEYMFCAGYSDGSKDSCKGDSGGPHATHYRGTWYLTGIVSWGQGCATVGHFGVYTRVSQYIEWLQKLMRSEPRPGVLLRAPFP

FVII(a) variant S119A = biological target: T2, FVII(a) variant S119A (human, UniProt P08709 61-466)
T2 construct: hFVII alanine variant in cell culture supernatant
T2 sequence: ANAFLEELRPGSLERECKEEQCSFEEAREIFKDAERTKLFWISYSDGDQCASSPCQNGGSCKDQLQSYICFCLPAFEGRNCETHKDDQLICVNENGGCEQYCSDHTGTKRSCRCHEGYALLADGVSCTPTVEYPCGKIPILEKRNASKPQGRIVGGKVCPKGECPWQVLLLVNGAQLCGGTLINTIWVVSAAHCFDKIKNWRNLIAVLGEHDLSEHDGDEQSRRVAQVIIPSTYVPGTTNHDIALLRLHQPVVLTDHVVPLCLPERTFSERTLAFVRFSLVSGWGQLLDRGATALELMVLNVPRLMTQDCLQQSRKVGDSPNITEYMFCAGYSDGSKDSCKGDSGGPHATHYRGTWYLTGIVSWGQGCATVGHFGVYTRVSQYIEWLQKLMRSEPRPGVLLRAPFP

FVII(a) variant R392A = biological target: T3, FVII(a) variant R392A (human, UniProt P08709 61-466)
T3 construct: hFVII alanine variant in cell culture supernatant
T3 sequence: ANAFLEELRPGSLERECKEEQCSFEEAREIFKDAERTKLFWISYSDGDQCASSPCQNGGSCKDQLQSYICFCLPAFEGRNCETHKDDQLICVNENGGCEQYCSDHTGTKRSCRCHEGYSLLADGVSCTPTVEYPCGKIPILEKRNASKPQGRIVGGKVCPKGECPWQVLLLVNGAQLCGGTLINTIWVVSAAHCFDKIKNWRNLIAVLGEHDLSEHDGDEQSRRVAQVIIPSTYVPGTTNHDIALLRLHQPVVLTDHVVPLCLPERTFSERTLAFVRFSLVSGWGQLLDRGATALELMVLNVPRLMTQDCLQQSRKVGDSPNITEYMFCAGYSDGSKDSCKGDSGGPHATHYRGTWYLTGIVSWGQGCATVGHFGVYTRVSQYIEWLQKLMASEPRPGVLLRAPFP

FVII(a) variant E116A = biological target: T4, FVII(a) variant E116A (human, UniProt P08709 61-466)
T4 construct: hFVII alanine variant in cell culture supernatant
T4 sequence: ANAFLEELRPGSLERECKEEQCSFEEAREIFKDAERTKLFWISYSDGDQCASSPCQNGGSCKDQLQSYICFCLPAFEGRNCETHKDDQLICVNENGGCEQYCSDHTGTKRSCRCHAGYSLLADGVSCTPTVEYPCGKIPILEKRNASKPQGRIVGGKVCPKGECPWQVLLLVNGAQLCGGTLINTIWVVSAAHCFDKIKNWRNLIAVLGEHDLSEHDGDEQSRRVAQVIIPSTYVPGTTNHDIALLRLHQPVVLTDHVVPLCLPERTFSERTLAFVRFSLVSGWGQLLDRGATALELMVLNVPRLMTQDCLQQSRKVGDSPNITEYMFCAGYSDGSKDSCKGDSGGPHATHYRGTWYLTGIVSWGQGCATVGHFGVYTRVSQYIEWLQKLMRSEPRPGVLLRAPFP

FVII(a) variant N184A = biological target: T5, FVII(a) variant N184A (human, UniProt P08709 61-466)
T5 construct: hFVII alanine variant in cell culture supernatant
T5 sequence: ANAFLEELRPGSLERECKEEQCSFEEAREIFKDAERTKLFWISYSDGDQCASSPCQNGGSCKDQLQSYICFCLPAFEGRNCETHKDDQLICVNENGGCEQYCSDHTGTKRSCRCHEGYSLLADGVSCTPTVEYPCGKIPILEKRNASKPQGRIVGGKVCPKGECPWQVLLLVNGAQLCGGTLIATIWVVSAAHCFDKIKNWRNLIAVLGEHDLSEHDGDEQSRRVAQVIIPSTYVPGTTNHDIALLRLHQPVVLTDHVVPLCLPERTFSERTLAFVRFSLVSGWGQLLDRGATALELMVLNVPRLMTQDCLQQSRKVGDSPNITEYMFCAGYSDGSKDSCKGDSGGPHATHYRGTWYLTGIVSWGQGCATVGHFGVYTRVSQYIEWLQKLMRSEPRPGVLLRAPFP

B1: mAb0842(OA) (antibody, human IgG4 S228P, kappa)
heavy: QVQLQESGPGLVKPSQTLSLTCTVSGYSISSDSAWSWIRQPPGKGLEWIGYIQYSGSTNYNPSLKSRVTISRDTSKNQFSLKLSSVTAADTAVYYCARSVNYYGNSFAVGYWGQGTLVTVSSASTKGPSVFPLAPCSRSTSESTAALGCLVKDYFPEPVTVSWNSGALTSGVHTFPAVLQSSGLYSLSSVVTVPSSSLGTKTYTCNVDHKPSNTKVDKRVESKYGPPCPPCPAPEFLGGPSVFLFPPKPKDTLMISRTPEVTCVVVDVSQEDPEVQFNWYVDGVEVHNAKTKPREEQFNSTYRVVSVLTVLHQDWLNGKEYKCKVSNKGLPSSIEKTISKAKGQPREPQVYTLPPSQEEMTKNQVSLSCAVKGFYPSDIAVEWESNGQPENNYKTTPPVLDSDGSFFLVSRLTVDKSRWQEGNVFSCSVMHEALHNHYTQKSLSLSLGK
light: EIVLTQSPATLSLSPGERATLSCRASQGISDYLHWYQQKPGEAPRLLIKYTSQPATGIPARFSGSGSGTDFTLTISSLEPEDFAVYYCQNGHSFPLTFGQGTKLEIKRTVAAPSVFIFPPSDEQLKSGTASVVCLLNNFYPREAKVQWKVDNALQSGNSQESVTEQDSKDSTYSLSSTLTLSKADYEKHKVYACEVTHQGLSSPVTKSFNRGEC
chain: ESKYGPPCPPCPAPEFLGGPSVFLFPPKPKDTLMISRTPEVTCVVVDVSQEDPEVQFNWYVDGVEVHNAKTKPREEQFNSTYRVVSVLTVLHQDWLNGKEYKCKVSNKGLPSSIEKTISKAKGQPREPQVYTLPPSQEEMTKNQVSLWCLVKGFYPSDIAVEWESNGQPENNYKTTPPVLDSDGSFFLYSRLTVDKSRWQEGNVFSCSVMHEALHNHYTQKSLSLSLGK
notes: also called monovalent humanized 11F2 antibody; one-armed anti-FVII(a) antibody
B1 showed a Kd (FVII(a) variant V252A) of 0.28 nM, a Kd (FVII(a) variant S119A) of 0.31 nM and a Kd (FVII(a) variant R392A) of 43.4 nM. For the same binder, the Kd (FVII(a) variant E116A) was 0.5 nM and the Kd (FVII(a) variant N184A) was 1.91 nM.

Source: patent US20220064329A1 (Novo Nordisk, published 2022)
